Molecular target: rat syntaxin-1A SNARE motif (residues 191-253) (rat, UniProt P32851 191-253)
Assay: NMR titration

Sequence of rat syntaxin-1A SNARE motif (residues 191-253) (P32851 191-253): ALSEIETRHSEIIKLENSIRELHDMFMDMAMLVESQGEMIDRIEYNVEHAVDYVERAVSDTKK

Kd: > 300 µM
B1: Rat Munc13-1 MUN-CD module (1148-1407,EF,1453-1531 fragment) (domain or fragment)
chain: not shown

Reference: PMC3197213 (Structure (London, England : 1993), 2011)
